Earlier results in US7630838B2, “Method for identifying agents that interact with beta-site APP cleaving enzyme (BACE)” (American Home Products Corporation, priority 2000, dated 2009).
Non-standard residues stand in square brackets, D forms with d. No end group written: not given here. Sta = CC(C)C[C@H](N)[C@@H](O)CC(=O)O

Biological target: β-secretase enzyme (Homo sapiens, UniProt P56817)
Conditions: stated in words only; no number given

Sequence of β-secretase enzyme (P56817 46-501): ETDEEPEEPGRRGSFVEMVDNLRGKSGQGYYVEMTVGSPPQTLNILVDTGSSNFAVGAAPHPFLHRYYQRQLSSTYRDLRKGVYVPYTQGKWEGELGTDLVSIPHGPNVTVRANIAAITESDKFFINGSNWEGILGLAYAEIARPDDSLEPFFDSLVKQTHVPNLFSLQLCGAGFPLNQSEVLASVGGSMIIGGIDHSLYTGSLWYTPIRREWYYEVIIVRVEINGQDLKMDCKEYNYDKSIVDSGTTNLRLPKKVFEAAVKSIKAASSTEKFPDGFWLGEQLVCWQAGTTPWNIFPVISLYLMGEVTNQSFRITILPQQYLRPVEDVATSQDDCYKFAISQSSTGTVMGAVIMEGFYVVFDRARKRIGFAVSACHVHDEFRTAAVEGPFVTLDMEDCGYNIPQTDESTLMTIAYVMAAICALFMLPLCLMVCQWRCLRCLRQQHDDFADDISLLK

- inhibit the β-secretase enzyme (efficiency): nanomolar efficiency
Substance: SER-GLU-VAL-ASN-Sta-VAL-ALA-GLU-PHE (SEVN[Sta]VAEF) [statine based inhibitor, based on the APP Swedish mutation]
